According to the domain aggregation screens of Martell et al. (2025):

Experiment: soluble fraction after stress (log2 fold change); higher = more stays soluble; pooled small domains, quantitative proteomics
Details: stress: pH 4
Summary of the method: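 Pooled custom libraries of small protein domains were subjected to pH 4 and measured by high-throughput quantitative proteomics. The log2 fold change in soluble amount per domain is reported, higher values meaning more remained soluble. This is used as a measure of aggregation propensity.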

Sequence	soluble fraction (log2)
HMKALRNQDVVVGKPLAMAVYDQHGVLLLGRGHVVISESQRQQLLERGFSIDAEQLGRLRAAIEATQRV	0.0921
HMKALYHQLVDLLKKRMESGMIPHDKLPSERELTAQYGVSRTTVRLALQELENTGYIYRRHGKGTFVSDI	0.1
HMKANIGDQVFTQLKDQIINGEWRPGDRIPSEAQLIQLFGVSRGTVRQAVQKLAGEGLIVTRHGEGSFVQG	-0.0317
HMKAQLQHIIGSNIKLARNTQGYTQEGLAERAEISVEHLKQVERGKKMLSVESLVNVANALQVSVDSLV	-0.205
HMKAQVKSVLDDIPGIGQTRRKALMRYFKSLEKIREASVEELKEADAMNERAAQSVYAFFHK	-0.222
HMKAQVKSVLDEIPGVGPTRRKALMKHFTSIEEIKQAEFETLLEAEGMNRAAAQSVYDFFHN	-0.491
HMKDESQLVGAEGKAVTPLRPTGVALIGEKRLDVLTEGEFIPRNSDIIVSRVEGNKIIVKLKN	0.22
HMKDHLRFEILSFAGDLRNGVVKTRQEFETIFAFYDKYEEIITALKVHNGYVDSEFDFIKEKFKELKSK	0.194
HMKDLQAISERMEEIISFAKANDNEISLFIVQDIIKNKKTGIDEDLLNMALYQIKEQGIKVLPA	-1.05
HMKDSIQIPNVVGMTIKDAQSQYGKSFSIIEQNRTESTKPAGTILEQTPAGGDTVSKRDNIIIRVVVSLG	0.36
HMKDSKSALQEYALERKMGLPVYEVVDRSGPDHAPQFVIAVSLGEWRLEAKGASKRQAEQQAASLMLEEI	-0.0445
HMKDYTIDDIINSKVEHPLGGYQSRFKVGEYEVSVVGGRQTNHGDFIHTFELAIFDKNNNFLRNLTPVTID	-0.411
HMKEATTSPLDGIPGIGSKRKKALLSHFGSARSVARADIPDLMRVDGISRQVAETIYGWFHN	0.311
HMKEDFPLLEQLRYTGEGADVTGTAEKMESIQALRSAADSGGFRATLGDIQQIPGGGLRFTLSLRGSR	-0.226
HMKEDNPIVLINLQAKEGEWVFKGTGLPYVGKYHQHKNGEYMIGIGVLNLNHELKPDEIIIPNPNK	0.0576
HMKEEDYEVFMRLINVRGIGPKSALNILGVISGQEMIQAIENDDIKRLKSLPGIGAKTAGQIVLDLKGKFV	-0.705
HMKEFIPPVLDDVLKFFSGSLLPDWENQGRLFFSHYNSQGWRKGTGVQVTDWDSLANKWILDEKIKRDARS	-0.214
HMKEGTIPPVVNRTLSDAEFVLKSYGYELGRVSEQHSDMPKDIVIKQSPEAGTVADPGTRVDVVVSIGKA	0.0175
HMKEHDTLALRLTAILRKLNDGEKLVPRELAEEFNVGIRTIQRDLTERLSFLDLEKTNGAYSLPTRNL	-0.36
HMKEIIFRGIGEFILDYKSLVIEFLNKNNYANLSMDAPVDEVNKAVANNMLNEDFVTELLLFQRRVE	-2.16
HMKEILLITGKGLHSGQDDVYKSAQLSKLRYSVPEFIKSNLEISQLILSVETPLQKDGGDGALLIK	-0.192
HMKEILVGVEPLSKKQIIIKKGIKGRSDYIIFEKKNYGLPENLKPEEVSIEIALKIIDEKKKRKA	0.22
HMKEIPTKKGDMLEIYEANGKYILKYPTFNITMPEVVKEIPKEAVDSYLAGKHDGEELINYANFGFWKS	0.315

Sequence	soluble fraction (log2)
HMKEKDAYTSEILDTLKNAKLLVVEGTVYPLLTRLKNDGLLNYRWEESTSGPPRKYYGLTDEG	-0.449
HMKEKIIKEPYDLFTTDKIGQALEVQALLARQGIKVQRRVDGTKSTLFLENYTQSEKDQALLAVVRSGIV	0.167
HMKEKPLWAIRITELREEHYFTQTDVSKALGIAQTTYAGYETGRHEPDFETMIKIADIYKVSLDYLIGR	-0.288
HMKELFETLPDVLDAKLLASALSISKAGAYQLLNRPDFPTLQVGGWKLVTKQKLALWMEQHTN	-0.511
HMKELFGQRLREQRLKQNLTLEQLAEKANLSPNYVGMVERGLKEPGLATIVKLLNGLNVSADTLL	0.155
HMKELLTKQQREEILETVKTKTPKDFGYTAEHWTTGFLGKWIEEHYEVEYKSKTSLYLVFKKASFTYHKPG	0.0606
HMKELTARQIEILDFITNYEWRHGYWPSIRNIQVQFSYKSTNAVMGHLRALERKGAIERIPGQARTFRIH	0.102
HMKEPFETMPDVMDAKQIAEALQISKAGAYNLLNSPDFPTLRIGGRKLVMKNELVEWLKSHTNRK	0.126
HMKEPPTLEEIKNYFASKLSTELESEKFFNYFESNGWLVGGKTPMKNWQSAANNWLINMSKFN	-0.323
HMKEPQLGPVRKWSDQTGNFGIEAQFVKREGDNILLKRADQRTISIPLEKLSDADQEHLKQEEQKQAME	-0.312
HMKEQLEAYVNRLFADAALTIRNAEVRQEILQHALDRYDDLIASGKTEQEAYDETVSGIGDVSGLYEHK	-0.526
HMKETKVIHVHLIFKKTSRFFGSISAIYSEFTAEEIGITEETLRHKGLSDGVSFATKKAIIQQGVLIR	-1.45
HMKEVDSESAFAERGISEVWIPALQKMGILTLEALDAANPNKVFNDLGGMRKKLKIDAAMPTKDEVTAWIQ	-0.053
HMKEVKPSDFFLSKLDEDHNLIEKFNALSSFKQKEFIEYIDSAKQEKTKHDRFEKIKPILLSNIGLNDKYR	-0.102
HMKEVVVPDYFLKQLQKNKKAFITFNNFSPSHKREYVEWITEAKTEETKNRRMKSAIEWMSEGKSRNWKYI	0.22
HMKFGETLIDLRKRNGLTQEELAAKLYVTRQAVSRWERGEVTPGIDMLKLIANVLNEPVAHLLDW	-0.435
HMKFNRPMSEILQEWENKLGTTSDAELAGLIGVVTMTINRWRKNETKPDLSALNRYDRIVNLVVNNIKQL	-0.321
HMKFPPELVEFIEGLSLLKPPLNYATVHRRAEKLAIKKGWASPSYSTVRNIIRKLSPALTTLAHEG	0.22
HMKGAADPAIKQKVLDYLDTVEKAKSKEIAKAISEEKSAVDLAVKELAFEDKVEYLYITTTFVALKGKVA	-0.865
HMKGALQIAIEEGFNWNLDKKYWNIVQSTVIAKRLGLKTTSGLKEAIEGMGGEYKRTKKARGYLVPTFKD	0.354
HMKGDYWIIDLDKNYQYAIISEPDRQYLWILSRSPNMDTQTLETLKEKIRSKGFDLTYLKQTL	-1.24
HMKGHQASTTWISERVKDIIKEDPTLGARKLQKRLEIHYNIELSYFKVWSGKNLQWMIFMVL	0.00439
HMKGSYTVKSGDNLWSIARKFYGGSGSTWTKIYSANKSTIESTARRYGRSSSDNGHWIYPGTVLVIP	0.405

Sequence	soluble fraction (log2)
HMKGVSFEEIERAVRTAQNPEADETAQQHAGMVFSRMEGNELFDKLVQSSSTIGKKITGLMDYYL	-0.378
HMKGYIGESKARNIALKKAPGASITKFEFDKDDGIAVYEVELRKGIYEYELKINAVTGAIIEFEKDIE	0.147
HMKHKYWEIKERIKKDILNEVYKKGESIPSERDLAGIYDVTRVTVQKAMAMLVQEGYIERIHGKGMFVLKN	-0.0581
HMKHRFVVGEVLSIGKLQHEITLKTAQGERKFQLDKQDLPASIQDGAKVRAELNEAGRVIDVHPLK	-0.178
HMKHYMKITDISLQTRDKNRVNVSVDGKYRFSLDVFQVGELGLKVGREYTDEELTALEDESQFG	0.0815
HMKIATIELVKEAVKSKLGKFTKRDIMELVPSVGKTTIENMLKQLIGEGYIERHGKGRATFYVK	0.158
HMKIDANTFTSIEKQLFVLLSKTPTPMGSIFVALAKEDKEAVWEVIHFLEAENRLIMNEDGTIQL	-1.09
HMKIDEVSFAYIERTLFSMLGKLPTPVNKVIATIGEEKKETIWEVIRFLESENKLITNEDGTLQL	-1.77
HMKIDNIIIYITGGVKKEGVYELPDGSRISDAIEQAEGLKANADTSSINLAYKLEDGMKIKIPLQGEN	-0.664
HMKIDNPEYQKIMDMIPYFFQTRNYDEAIEALSYVIEQEPSFSEAYNKRATFYFMMGDFENSMKDIESTLA	-0.75
HMKIEEVIEKLKTDSIISRKEYEDIVRQINPNLSDRTIFWQLAKLQDMGVLQKIGQNSFHVRN	0.0251
HMKIERKGDESYLSFVERATSALSDGLIDYQQWGRAVVGEDLYSEENTRRIAKFFAQFIQNLEND	-1.6
HMKIKAKYTTDFGIRIYAPKPGKNYWRISYVDLDGKLRDTTATSEKTALDKSAEIEVLLRNN	-0.232
HMKILALETSAKAVSAAVSENGRILASGYQDTGLTHSRTLMPIVEHILKNTDLKLSDMDAIAVAVGPG	0.22
HMKIMSLSERHQKILELLKVNGIVSVNSLSRQLNVSSVTIRKDLGLLEEKKLLYRSHGGAIQID	-0.213
HMKINYNEFLRRFLGEKEGDIIEMETGKRIGTHKGYWFHTIGQRKGLGLGGGPWFVIRKDIDENIIYVSHG	-0.643
HMKIPGIGDVYAILARVYSGPQFTWIEAGFPEDDTKAYSYLHTAIRKGSAIAILQAMRTSGALTPTIEKE	-0.457
HMKIPPIMFVRAIMVAGRQSMAIMDIEGVGTGIIVRSGYSFSNGEGKVVRIGPDKVTVNWSGKHLDLAPG	-0.121
HMKIPQFAVIKQYLEQQIKTAQWAPGRQIPTEQSLADTFSVSRMTARRAVQQLADAGLLERTQGSGTFVAD	-0.053
HMKISDTITEKILTDNNFSMELAKKIGIQQGSLLSSIRRNRDSRILRLWEAVMFYKEQGYTEEEIFTDY	-0.864
HMKISELAKKVIASGRVTQWAKHPHIYFVNGMRKVAIELDVNGVFSISMRYYPYDPADRELVENLIRGD	-0.572
HMKIVQHQLQLPVHVAGKFKGMFYKSDFVMSEDYDDDGNMILAVRLPLVDWNKFLKRTDNELSQYIKVTP	-1.53
HMKKALTAEQEARVRELYFRGINYYSANRYQDAIAEWRKVLAIDPNHEKAKNNIRQTLILLK	-0.123
